Source: patent publication US20250250555A1 (DENALI THERAPEUTICS, published 2025)

Key:
Assay in all cases: SPR (Biacore), fusion protein captured on chip, human apical domain TfR injected, steady-state fit
ETV:GAA Fusion 2 = biological target: T1, ETV:GAA Fusion 2 (human, UniProt P0DOX5 223-449 = IgG part)
T1 construct: Heterodimer of the two chains; also called N-terminal monozyme GAA-Fc fusion protein
Description: (§1) To determine whether GAA-Fc fusion proteins with engineered TfR binding affects the ability of the modified Fc domain to interact with human TfR, the affinity of ETV:GAA fusion proteins (Example 1) for human TfR was assessed using a Biacore™ surface plasmon resonance assay. Biacore™ Series S CM5 sensor chips were immobilized with anti-human Fab (human Fab capture kit from GE Healthcare). Five (5) μg/mL of the GAA-Fc fusion proteins were captured for 1 minute on each flow cell and serial 3-fold dilutions of human apical domain TfR were injected at a flow rate of 30 μL/min. Each sample was analyzed with a 3-minute association and a 3-minute dissociation. After each injection, the chip was regenerated using 10 mM glycine-HCl (pH 2.1). Binding response was corrected by subtracting the RU from a flow cell capturing an irrelevant IgG at similar density. Steady-state affinities were obtained by fitting the response at equilibrium against the concentration using Biacore™ T200 Evaluation Software v3.1.

ETV:GAA Fusion 3 = biological target: T2, ETV:GAA Fusion 3 (human, UniProt P0DOX5 223-449 = IgG part)
T2 construct: Heterodimer of the two chains; also called C-terminal monozyme GAA-Fc fusion protein
Description: as §1

ETV:GAA Fusion 4 = biological target: T3, ETV:GAA Fusion 4 (human, UniProt P0DOX5 223-449 = IgG part)
T3 construct: Heterodimer of the two chains; also called C-terminal monozyme GAA-Fc fusion protein
Description: as §1

ETV:GAA Fusion 1 = biological target: T4, ETV:GAA Fusion 1 (human, UniProt P0DOX5 223-449 = IgG part)
T4 construct: Heterodimer of the two chains; also called N-terminal monozyme GAA-Fc fusion protein
Description: as §1

B1: human apical domain TfR (receptor)
chain: NSVIIVDKNGRLVYLVENPGGYVAYSKAATVTGKLVHANFGTKKDFEDLYTPVNGSIVIVRAGKITFAEKVANAESLNAIGVLIYMDQTKFPIVNAELSFFGHAHLGTGDPYTPGFPSFNHTQFPPSRSSGLPNIPVQTISRAAAEKLFGNMEGDCPSDWKTDSTCRMVTSESKNVKLTVS
notes: also called human TfR; huTfR
Question: What does the source list for B1?
Answer: Kd (ETV:GAA Fusion 2): 260 nM; Kd (ETV:GAA Fusion 3): 282 nM; Kd (ETV:GAA Fusion 4): 271 nM; Kd (ETV:GAA Fusion 1): 251 nM
